The text below walks through data of the Immune Epitope Database (IEDB).

As usually defined, the Kd is the free concentration of one partner at which half of the binding sites on the other are occupied at equilibrium, for simple one-to-one binding.

One experiment addresses HLA-B*45:06. The experiment is described as follows: IEDB peptide-MHC binding, purified MHC/competitive/fluorescence; filed as Kd, often an IC50 or EC50 that approximates it; ≥ and ≤ were set here for values at or beyond the usual limits of such assays.
The target of another experiment is HLA-B*27:20. Described as above. The settings on record: source organism: Escherichia coli 536.
For a further experiment, the target named is HLA-B*15:42. Described as above.
For a further experiment, the target named is HLA-B*40:13. The description is as above. The settings on record: source organism: Escherichia coli 536.
The target of a further experiment is HLA-A*32:07. The experiment is described as above.
Experiment [1] addresses HLA-B*40:01. The description is as above. The following applies: source organism: Escherichia coli 536.
The next experiment has as its target HLA-B*15:01. The description is as above.
A further experiment concerns the target HLA-B*39:01. Described as above.
The next experiment concerns the target HLA-B*83:01. The experiment is described as above.
The target of experiment [2] is HLA-A*02:01. The experiment is described as above. The settings on record: source organism: Mycobacterium tuberculosis variant bovis BCG str. Pasteur 1173P2.
In experiment [3] the target is HLA-A*69:01. The description is as above. The following applies: source organism: Mycobacterium tuberculosis variant bovis BCG str. Pasteur 1173P2.
In another experiment the target is HLA-A*02:03. Described as above. The settings on record: source organism: Mycobacterium tuberculosis variant bovis BCG str. Pasteur 1173P2.
For experiment [4], the target named is HLA-A*31:01. The experiment is described as above. The following applies: source organism: Mycobacterium tuberculosis variant bovis BCG str. Pasteur 1173P2.
Another experiment has as its target HLA-B*48:01. Description: IEDB peptide-MHC binding, purified MHC/direct/fluorescence; filed as Kd, often an IC50 or EC50 that approximates it; ≥ and ≤ were set here for values at or beyond the usual limits of such assays. The following applies: source organism: Mycobacterium tuberculosis.
Another experiment deals with HLA-A*11:01. Described as above.
The target of a further experiment is HLA-B*51:01. The experiment is described as above. The following applies: source organism: Mycobacterium tuberculosis.
The next experiment concerns the target HLA-B*57:01. The description is as above.
The target of the next experiment is HLA-A*01:01. The experiment is described as above.
In another experiment the target is HLA-B*58:01. The experiment is described as above.
The target of experiment [5] is HLA-B*40:01. Described as above. The settings on record: source organism: Mycobacterium tuberculosis.
The target in a further experiment is HLA-B*15:17. The experiment is described as above.
Experiment [6] concerns the target HLA-B*18:01. Described as above. The settings on record: source organism: Mycobacterium tuberculosis.
The next experiment concerns the target HLA-A*03:01. Described as above. The settings on record: source organism: Mycobacterium tuberculosis.
The target in the next experiment is HLA-B*46:01. Described as above. The settings on record: source organism: Mycobacterium tuberculosis.
The next experiment has as its target HLA-B*38:01. Described as above. The following applies: source organism: Mycobacterium tuberculosis str. Haarlem.
For the next experiment, the target named is HLA-B*27:05. The description is as above. The settings on record: source organism: Mycobacterium tuberculosis.
A further experiment deals with HLA-C*04:01. The experiment is described as follows: IEDB peptide-MHC binding, purified MHC/competitive/fluorescence; filed as Kd, often an IC50 or EC50 that approximates it; ≥ and ≤ were set here for values at or beyond the usual limits of such assays. The settings on record: source organism: Hantaan virus 76-118.
A further experiment addresses HLA-A*24:02. The experiment is described as follows: IEDB peptide-MHC binding, purified MHC/direct/fluorescence; filed as Kd, often an IC50 or EC50 that approximates it; ≥ and ≤ were set here for values at or beyond the usual limits of such assays. The settings on record: source organism: Orthohantavirus hantanense.
Another experiment addresses HLA-A*24:03. Described as above.
The target in a further experiment is HLA-A*26:02. Description: IEDB peptide-MHC binding, purified MHC/competitive/fluorescence; filed as Kd, often an IC50 or EC50 that approximates it; ≥ and ≤ were set here for values at or beyond the usual limits of such assays. The settings on record: source organism: Vaccinia virus WR.
Experiment [7] deals with HLA-B*18:01. The description is as above. The following applies: source organism: Vaccinia virus WR.
The target of a further experiment is HLA-A*68:02. The description is as above. The following applies: source organism: Vaccinia virus WR.
In the next experiment the target is HLA-B*08:01. Described as above. The settings on record: source organism: Vaccinia virus WR.
The next experiment has as its target HLA-A*02:06. The experiment is described as above. The settings on record: source organism: Vaccinia virus WR.
Experiment [8] has as its target HLA-A*02:01. Description: IEDB peptide-MHC binding, purified MHC/direct/fluorescence; filed as Kd, often an IC50 or EC50 that approximates it; ≥ and ≤ were set here for values at or beyond the usual limits of such assays. The settings on record: source organism: Camelpox virus M-96.
Experiment [9] addresses HLA-A*69:01. Described as above. The settings on record: source organism: Camelpox virus M-96.
The next experiment has as its target HLA-A*26:03. Described as above. The following applies: source organism: Variola virus.
In experiment [10] the target is HLA-A*31:01. The experiment is described as above. The following applies: source organism: Camelpox virus M-96.
The target in the next experiment is HLA-B*07:02. Described as above. The settings on record: source organism: Camelpox virus M-96.
In a further experiment the target is HLA-A*26:01. The experiment is described as above. The following applies: source organism: Variola virus.
A further experiment deals with HLA-B*08:02. Described as above. The settings on record: source organism: Variola virus.
Setting [11] is: source organism: Escherichia coli 536.
[12] abbreviates: source organism: Mycobacterium tuberculosis.
[13] abbreviates: source organism: Hantaan virus 76-118.
[14] abbreviates: source organism: Vaccinia virus WR.
Setting [15] is: source organism: Camelpox virus M-96.

Where only a bound is given, the exact number is not on record here.

RQRAVRMVL: the Kd in the experiment with HLA-B*45:06 (setting [11]) is no less than 5 µM; in the experiment with HLA-B*27:20, 0.0016 µM; with HLA-B*15:42 (setting [11]), 5.18 µM; with HLA-B*40:13, 0.0514 µM; with HLA-A*32:07 (setting [11]), 0.0307 µM; with HLA-B*40:01 [1], 1.87 µM. Besides, the equilibrium dissociation constant (Kd) is 0.354 µM with HLA-B*15:01 (setting [11]), no less than 5 µM with HLA-B*39:01 (setting [11]) and no less than 5 µM with HLA-B*83:01 (setting [11]).

As to RVEESRARL, the Kd with HLA-A*02:01 [2], in the experiment with HLA-A*69:01 [3], in the experiment with HLA-A*02:03, in the experiment with HLA-A*31:01 [4], in the experiment with HLA-B*15:01 (source organism: Mycobacterium tuberculosis variant bovis BCG str. Pasteur 1173P2) and with HLA-B*48:01 was no less than 20 µM in each case. Further, the Kd was no less than 20 µM with HLA-A*11:01 (setting [12]); no less than 20 µM with HLA-B*51:01; 2.5 µM in the experiment with HLA-B*57:01 (setting [12]); no less than 20 µM with HLA-A*01:01 (setting [12]); no less than 20 µM with HLA-B*58:01 (setting [12]); no less than 20 µM with HLA-B*40:01 [5]. The equilibrium dissociation constant (Kd) with HLA-B*15:17 (setting [12]) was 0.0194 µM; with HLA-B*18:01 [6], no less than 20 µM; with HLA-A*03:01, no less than 20 µM; in the experiment with HLA-B*46:01, no less than 20 µM; in the experiment with HLA-B*38:01, no less than 20 µM; with HLA-B*27:05, no less than 20 µM.

RYRTAVCGL: the Kd is no less than 5 µM with HLA-B*45:06 (setting [13]); no less than 5 µM in the experiment with HLA-B*15:42 (setting [13]); no less than 5 µM in the experiment with HLA-C*04:01; 0.0076 µM with HLA-A*32:07 (setting [13]); no less than 5 µM with HLA-B*83:01 (setting [13]); 0.024 µM in the experiment with HLA-A*24:02. In the experiment with HLA-A*24:03 (source organism: Orthohantavirus hantanense), this sequence showed a Kd of 0.0067 µM.

Turning to EYYFRNEVF, the Kd with HLA-A*26:02 was 3.49 µM; with HLA-B*15:01 (setting [14]), 4.38 µM; with HLA-B*39:01 (setting [14]), no less than 20 µM; with HLA-B*18:01 [7], 0.0078 µM; with HLA-A*68:02, 3.39 µM; with HLA-B*08:01 it was no less than 20 µM. The Kd in the experiment with HLA-A*02:06 was 0.153 µM; with HLA-A*02:01 [8], no less than 20 µM; with HLA-A*69:01 [9], no less than 20 µM; with HLA-A*24:03 (setting [15]), 0.195 µM; in the experiment with HLA-A*26:03, no less than 20 µM; with HLA-A*11:01 (setting [15]), no less than 20 µM. In addition, the Kd with HLA-B*57:01 (setting [15]), with HLA-A*01:01 (setting [15]), with HLA-B*58:01 (setting [15]), with HLA-A*31:01 [10], in the experiment with HLA-B*07:02 and with HLA-B*15:17 (setting [15]) was no less than 20 µM each time. In addition, the Kd with HLA-A*26:01 and with HLA-B*08:02 was no less than 20 µM in each case.
